Measurements as given in patent publication US20250304666A1 (ALCHEMAB THERAPEUTICS, published 2025).
Numbering of substitutions follows the chain as printed.

Columns and labels:
Assay in all cases: ELISA, reduced antigen
reduced CFH = biological target: T1, reduced CFH (Homo sapiens (Human), UniProt P08603 860-1231, limits assumed)
T1 construct: also called CFH (reduced)
T1 sequence: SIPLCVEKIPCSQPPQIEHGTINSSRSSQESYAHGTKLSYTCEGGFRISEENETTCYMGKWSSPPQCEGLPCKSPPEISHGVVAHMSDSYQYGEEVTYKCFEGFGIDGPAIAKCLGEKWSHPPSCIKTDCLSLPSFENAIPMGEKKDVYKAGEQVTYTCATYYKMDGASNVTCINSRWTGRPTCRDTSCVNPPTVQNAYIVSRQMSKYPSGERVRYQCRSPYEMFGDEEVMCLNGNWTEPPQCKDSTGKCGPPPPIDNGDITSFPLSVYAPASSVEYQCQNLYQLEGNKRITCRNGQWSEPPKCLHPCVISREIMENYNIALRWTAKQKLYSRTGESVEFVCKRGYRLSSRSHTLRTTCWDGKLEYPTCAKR

reduced CFHR5 = biological target: T2, reduced CFHR5 (UniProt Q9BXR6 19-569, limits assumed)
T2 sequence (looked up): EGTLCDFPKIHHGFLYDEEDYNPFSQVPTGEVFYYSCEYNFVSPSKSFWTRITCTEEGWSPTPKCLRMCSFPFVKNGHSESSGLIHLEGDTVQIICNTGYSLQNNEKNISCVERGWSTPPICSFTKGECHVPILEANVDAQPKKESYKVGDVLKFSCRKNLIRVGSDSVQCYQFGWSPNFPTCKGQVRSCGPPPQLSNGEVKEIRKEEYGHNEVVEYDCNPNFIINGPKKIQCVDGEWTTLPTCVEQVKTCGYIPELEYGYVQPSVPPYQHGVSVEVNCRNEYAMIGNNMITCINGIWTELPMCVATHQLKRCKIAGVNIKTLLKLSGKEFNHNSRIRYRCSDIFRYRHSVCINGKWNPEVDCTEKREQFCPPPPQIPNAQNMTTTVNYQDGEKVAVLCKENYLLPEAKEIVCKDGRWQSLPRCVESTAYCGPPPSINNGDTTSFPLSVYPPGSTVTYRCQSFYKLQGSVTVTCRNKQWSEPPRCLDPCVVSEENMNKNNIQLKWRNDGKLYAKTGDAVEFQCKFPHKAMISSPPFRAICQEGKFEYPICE

reduced CFHR2 = biological target: T3, reduced CFHR2 (UniProt P36980 19-270, limits assumed)
T3 sequence (looked up): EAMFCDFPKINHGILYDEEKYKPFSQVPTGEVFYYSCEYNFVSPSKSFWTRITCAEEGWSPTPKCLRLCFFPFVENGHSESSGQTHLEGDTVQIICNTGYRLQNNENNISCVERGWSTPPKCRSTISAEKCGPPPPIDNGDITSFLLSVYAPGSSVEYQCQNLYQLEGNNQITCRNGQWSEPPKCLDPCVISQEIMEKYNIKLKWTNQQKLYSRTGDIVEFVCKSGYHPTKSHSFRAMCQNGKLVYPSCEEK

reduced CFHR3 = biological target: T4, reduced CFHR3 (UniProt Q02985 19-330, limits assumed)
T4 sequence (looked up): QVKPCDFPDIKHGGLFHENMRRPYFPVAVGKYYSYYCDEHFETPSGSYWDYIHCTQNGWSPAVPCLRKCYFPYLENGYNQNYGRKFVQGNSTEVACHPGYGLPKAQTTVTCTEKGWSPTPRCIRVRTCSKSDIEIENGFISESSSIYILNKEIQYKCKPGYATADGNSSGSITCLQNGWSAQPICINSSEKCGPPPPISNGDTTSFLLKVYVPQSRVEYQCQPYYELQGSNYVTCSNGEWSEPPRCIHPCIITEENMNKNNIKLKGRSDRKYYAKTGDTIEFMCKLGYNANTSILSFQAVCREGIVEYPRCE

reduced CFHR1 = biological target: T5, reduced CFHR1 (UniProt Q03591 19-330, limits assumed)
T5 sequence (looked up): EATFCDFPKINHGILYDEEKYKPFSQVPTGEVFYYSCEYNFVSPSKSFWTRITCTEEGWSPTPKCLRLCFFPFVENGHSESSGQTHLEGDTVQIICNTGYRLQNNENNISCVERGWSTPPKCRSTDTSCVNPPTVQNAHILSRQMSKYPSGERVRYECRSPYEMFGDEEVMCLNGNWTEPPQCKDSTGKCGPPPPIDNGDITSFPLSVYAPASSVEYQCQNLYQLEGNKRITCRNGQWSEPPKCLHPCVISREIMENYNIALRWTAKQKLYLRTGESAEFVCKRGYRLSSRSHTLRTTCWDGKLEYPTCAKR

B1: ATL4717 (antibody, human IgG1, kappa, V domains shown)
VH: QVQLVESGGGMVQPGRSLRLSCAASGFTFSIYGMHWVRQAPGRGLEWVAVMSFDGKTKYYADSVKGRFTISRDNSKNTLYLQMNSLRRVDTAVYYCAKGGATAAVFDSWGQGTLVTVSS
VL: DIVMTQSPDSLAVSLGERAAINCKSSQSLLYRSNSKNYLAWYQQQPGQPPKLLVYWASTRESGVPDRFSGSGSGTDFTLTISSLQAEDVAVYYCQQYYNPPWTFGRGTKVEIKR
notes: Human IgG1; also called ATL0004717; ATL04717
fold change vs isotype at 1 ug/ml (reduced CFH): 17.6 fold | binding result (reduced CFHR5): no binding (tested: 1 ug/ml) | fold change vs isotype at 1 ug/ml (reduced CFHR5): 1 fold | fold change vs isotype at 1 ug/ml (reduced CFHR2): 10.7 fold | binding result (reduced CFHR3): no binding (tested: 1 ug/ml) | fold change vs isotype at 1 ug/ml (reduced CFHR3): 0.9 fold | fold change vs isotype at 1 ug/ml (reduced CFHR1): 23.8 fold

B2: ATL5170 (antibody, human IgG1, kappa, V domains shown)
VH: B1 VH with M11V, I31N, R43K, M51T, R88A, V89E, F106L
VL: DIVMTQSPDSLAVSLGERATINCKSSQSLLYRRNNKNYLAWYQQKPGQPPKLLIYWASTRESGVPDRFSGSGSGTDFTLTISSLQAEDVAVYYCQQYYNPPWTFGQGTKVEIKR
notes: IgG1; also called ATL_0005170
fold change vs isotype at 1 ug/ml (reduced CFH): 18.1 fold | fold change vs isotype at 1 ug/ml (reduced CFHR5): 1.1 fold | fold change vs isotype at 1 ug/ml (reduced CFHR2): 8.4 fold | fold change vs isotype at 1 ug/ml (reduced CFHR3): 1 fold | fold change vs isotype at 1 ug/ml (reduced CFHR1): 23.1 fold
